2 molecules from patent publication CN109879966A (PERSONGEN BIOMEDICINE SUZHOU CO LTD, dated 2019) can be followed below.

In this test the target is T1, CD19 (Biacore ligand coupled to the chip) (UniProt P15391 20-291, limits assumed).
T1 construct: also called 配体:CD19
T1 sequence (looked up): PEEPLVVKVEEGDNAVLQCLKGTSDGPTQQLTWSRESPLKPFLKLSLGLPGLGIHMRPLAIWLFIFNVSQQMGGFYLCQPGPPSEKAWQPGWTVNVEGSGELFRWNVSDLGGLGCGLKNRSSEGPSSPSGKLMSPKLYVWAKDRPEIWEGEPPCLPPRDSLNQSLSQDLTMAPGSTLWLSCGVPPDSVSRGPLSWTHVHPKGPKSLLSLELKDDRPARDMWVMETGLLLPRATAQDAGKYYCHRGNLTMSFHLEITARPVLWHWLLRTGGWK
Put plainly: Biacore SPR, CD19 coupled to chip, antibody as analyte 3.125-100 ug/ml. A general note: SPR reads the build-up and loss of mass on a sensor chip optically.

B1: HM1711091-T1L1H4 (antibody, V domains shown)
VH: QVQLQESGPGLVAPSETLSLTCTVSGVSLPDYGVSWIRQPPRKGLEWIGVIWGSETTYYNSALKSRVTISVDTSKNQFSLKLSSVTAADTAVYYCAKHYYYGGSYAMDYWGQGTLVTVSS
VL: DIQMTQSPSSLSASVGDRVTITCRASQDISKYLNWYQQKPGKAPKLLIYHTSRLHSGVPSRFSGSGSGTDFTFTISSLQPEDIATYYCQQGNTLPYTFGGGTKVEI
notes: Full antibody (全抗) used in the Biacore assay; also called 人源化单抗T1L1H4; 人源化T1L1H4抗体
Broadly, the Kd is a measure of binding affinity in units of concentration. A higher Kd goes with weaker binding. A word on the koff: it is a measure of how fast the partners let go of each other. Lower therefore signals slow dissociation. Broadly, the kon is a measure of how fast the partners come together. Read a high kon as fast association. Consider B1, for which the Kd was determined as 15.9 nM, the koff is 0.00441 s⁻¹ and the on-rate constant (kon) was 278000 M⁻¹ s⁻¹.

B2: HM1711091-T4L2H2 (antibody, V domains shown)
VH: QVTLRESGPALVKPTQTLTLTCTFSGVSLPDYGVSWIRQPPGKALEWLAVIWGSETTYYNSALKSRLTISKDTSKNQVVLTMTNMDPVDTATYYCAKHYYYGGSYAMDYWGQGTTVTVSS
VL: EIVLTQSPATLSLSPGERATLSCRASQDISKYLNWYQQKPGQAPRLLIYHTSRLHSGIPDRFSGSGSGTDFTLTISRLEPEDIAVYYCQQGNTLPYTFGQGTKLEI
notes: Full antibody (全抗) used in the Biacore assay; also called 人源化单抗T4L2H2; 人源化T4L2H2抗体
With B2, binding was characterised by a dissociation constant (Kd) of 28.4 nM, the koff was determined as 0.0028 s⁻¹ and the on-rate (kon) was 98600 M⁻¹ s⁻¹.
